Experimental data reported in US20250188176A1 (INVETX, published 2025).

T1: Extracellular domain (ECD) of the canine IL-4 receptor alpha-V5 epitope-AviTag-His Tag (canine)
T1 construct: monomeric form isolated by size exclusion; also called canine IL-4RA-V5-Avi-His; canine IL-4RA
T1 chain: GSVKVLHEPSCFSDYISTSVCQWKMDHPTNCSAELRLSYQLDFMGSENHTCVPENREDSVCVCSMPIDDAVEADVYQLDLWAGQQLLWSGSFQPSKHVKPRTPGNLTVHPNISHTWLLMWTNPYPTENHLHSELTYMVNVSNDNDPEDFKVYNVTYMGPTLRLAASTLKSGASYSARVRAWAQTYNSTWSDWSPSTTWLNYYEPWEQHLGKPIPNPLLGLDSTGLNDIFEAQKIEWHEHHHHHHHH

B1: TB640_005 Fab-SASA VH-K103I (Fab, V domains shown)
VH: EVQLVESGGDLVKPGGSLRLSCVASGFTFRDYAMTWVRQAPGKGLQWVSLISGSGGKTYYADAVKGRFTISRDNAKNTLYLQMNSLRAEDTAVYYCAVDRLTITIRPQYYGLWVWGQGTLVTVSS
VL: DIVMTQTPLSLSVSPGETASISCRSSQSLLYSIGYNYLDWYLQKPGQSPQGLIYLGSKRASGVPDRFSGSGSGTDFTLRISRVEANDTGVYYCMQGLQSPLTFGQGTKLEIKR
notes: not shown: SASA tag then His-tag
B2: TB640_005 Fab-SASA VH-T28N (Fab, V domains shown)
VH: EVQLVESGGDLVKPGGSLRLSCVASGFNFRDYAMTWVRQAPGKGLQWVSLISGSGGKTYYADAVKGRFTISRDNAKNTLYLQMNSLRAEDTAVYYCAVDRLTKTIRPQYYGLWVWGQGTLVTVSS
VL: DIVMTQTPLSLSVSPGETASISCRSSQSLLYSIGYNYLDWYLQKPGQSPQGLIYLGSKRASGVPDRFSGSGSGTDFTLRISRVEANDTGVYYCMQGLQSPLTFGQGTKLEIKR
notes: as for B1
B3: TB640_005 Fab-SASA VH-L50F (Fab, V domains shown)
VH: EVQLVESGGDLVKPGGSLRLSCVASGFTFRDYAMTWVRQAPGKGLQWVSFISGSGGKTYYADAVKGRFTISRDNAKNTLYLQMNSLRAEDTAVYYCAVDRLTKTIRPQYYGLWVWGQGTLVTVSS
VL: DIVMTQTPLSLSVSPGETASISCRSSQSLLYSIGYNYLDWYLQKPGQSPQGLIYLGSKRASGVPDRFSGSGSGTDFTLRISRVEANDTGVYYCMQGLQSPLTFGQGTKLEIKR
notes: as for B1
B4: TB640_005 Fab-SASA VH-V114K (Fab, V domains shown)
VH: EVQLVESGGDLVKPGGSLRLSCVASGFTFRDYAMTWVRQAPGKGLQWVSLISGSGGKTYYADAVKGRFTISRDNAKNTLYLQMNSLRAEDTAVYYCAVDRLTKTIRPQYYGLWKWGQGTLVTVSS
VL: DIVMTQTPLSLSVSPGETASISCRSSQSLLYSIGYNYLDWYLQKPGQSPQGLIYLGSKRASGVPDRFSGSGSGTDFTLRISRVEANDTGVYYCMQGLQSPLTFGQGTKLEIKR
notes: as for B1
B5: TB640_005 Fab-SASA VL-A60L (Fab, V domains shown)
VH: EVQLVESGGDLVKPGGSLRLSCVASGFTFRDYAMTWVRQAPGKGLQWVSLISGSGGKTYYADAVKGRFTISRDNAKNTLYLQMNSLRAEDTAVYYCAVDRLTKTIRPQYYGLWVWGQGTLVTVSS
VL: DIVMTQTPLSLSVSPGETASISCRSSQSLLYSIGYNYLDWYLQKPGQSPQGLIYLGSKRLSGVPDRFSGSGSGTDFTLRISRVEANDTGVYYCMQGLQSPLTFGQGTKLEIKR
notes: as for B1
B6: TB640_005 Fab-SASA VH-S52N (Fab, V domains shown)
VH: EVQLVESGGDLVKPGGSLRLSCVASGFTFRDYAMTWVRQAPGKGLQWVSLINGSGGKTYYADAVKGRFTISRDNAKNTLYLQMNSLRAEDTAVYYCAVDRLTKTIRPQYYGLWVWGQGTLVTVSS
VL: DIVMTQTPLSLSVSPGETASISCRSSQSLLYSIGYNYLDWYLQKPGQSPQGLIYLGSKRASGVPDRFSGSGSGTDFTLRISRVEANDTGVYYCMQGLQSPLTFGQGTKLEIKR
notes: as for B1
B7: TB640_005 Fab-SASA VH-V114H (Fab, V domains shown)
VH: EVQLVESGGDLVKPGGSLRLSCVASGFTFRDYAMTWVRQAPGKGLQWVSLISGSGGKTYYADAVKGRFTISRDNAKNTLYLQMNSLRAEDTAVYYCAVDRLTKTIRPQYYGLWHWGQGTLVTVSS
VL: DIVMTQTPLSLSVSPGETASISCRSSQSLLYSIGYNYLDWYLQKPGQSPQGLIYLGSKRASGVPDRFSGSGSGTDFTLRISRVEANDTGVYYCMQGLQSPLTFGQGTKLEIKR
notes: as for B1
B8: TB640_005 Fab-SASA VH-K103R (Fab, V domains shown)
VH: EVQLVESGGDLVKPGGSLRLSCVASGFTFRDYAMTWVRQAPGKGLQWVSLISGSGGKTYYADAVKGRFTISRDNAKNTLYLQMNSLRAEDTAVYYCAVDRLTRTIRPQYYGLWVWGQGTLVTVSS
VL: DIVMTQTPLSLSVSPGETASISCRSSQSLLYSIGYNYLDWYLQKPGQSPQGLIYLGSKRASGVPDRFSGSGSGTDFTLRISRVEANDTGVYYCMQGLQSPLTFGQGTKLEIKR
notes: as for B1
B9: TB640_005 Fab-SASA VH-L101M (Fab, V domains shown)
VH: EVQLVESGGDLVKPGGSLRLSCVASGFTFRDYAMTWVRQAPGKGLQWVSLISGSGGKTYYADAVKGRFTISRDNAKNTLYLQMNSLRAEDTAVYYCAVDRMTKTIRPQYYGLWVWGQGTLVTVSS
VL: DIVMTQTPLSLSVSPGETASISCRSSQSLLYSIGYNYLDWYLQKPGQSPQGLIYLGSKRASGVPDRFSGSGSGTDFTLRISRVEANDTGVYYCMQGLQSPLTFGQGTKLEIKR
notes: as for B1
B10: TB640_005 Fab-SASA VH-V114Q (Fab, V domains shown)
VH: EVQLVESGGDLVKPGGSLRLSCVASGFTFRDYAMTWVRQAPGKGLQWVSLISGSGGKTYYADAVKGRFTISRDNAKNTLYLQMNSLRAEDTAVYYCAVDRLTKTIRPQYYGLWQWGQGTLVTVSS
VL: DIVMTQTPLSLSVSPGETASISCRSSQSLLYSIGYNYLDWYLQKPGQSPQGLIYLGSKRASGVPDRFSGSGSGTDFTLRISRVEANDTGVYYCMQGLQSPLTFGQGTKLEIKR
notes: as for B1
B11: TB640_005 Fab-SASA VH-Y110R (Fab, V domains shown)
VH: EVQLVESGGDLVKPGGSLRLSCVASGFTFRDYAMTWVRQAPGKGLQWVSLISGSGGKTYYADAVKGRFTISRDNAKNTLYLQMNSLRAEDTAVYYCAVDRLTKTIRPQYRGLWVWGQGTLVTVSS
VL: DIVMTQTPLSLSVSPGETASISCRSSQSLLYSIGYNYLDWYLQKPGQSPQGLIYLGSKRASGVPDRFSGSGSGTDFTLRISRVEANDTGVYYCMQGLQSPLTFGQGTKLEIKR
notes: as for B1
B12: TB640_005 Fab-SASA VH-L50M (Fab, V domains shown)
VH: EVQLVESGGDLVKPGGSLRLSCVASGFTFRDYAMTWVRQAPGKGLQWVSMISGSGGKTYYADAVKGRFTISRDNAKNTLYLQMNSLRAEDTAVYYCAVDRLTKTIRPQYYGLWVWGQGTLVTVSS
VL: DIVMTQTPLSLSVSPGETASISCRSSQSLLYSIGYNYLDWYLQKPGQSPQGLIYLGSKRASGVPDRFSGSGSGTDFTLRISRVEANDTGVYYCMQGLQSPLTFGQGTKLEIKR
notes: as for B1
B13: TB640_005 Fab-SASA VH-Y110L (Fab, V domains shown)
VH: EVQLVESGGDLVKPGGSLRLSCVASGFTFRDYAMTWVRQAPGKGLQWVSLISGSGGKTYYADAVKGRFTISRDNAKNTLYLQMNSLRAEDTAVYYCAVDRLTKTIRPQYLGLWVWGQGTLVTVSS
VL: DIVMTQTPLSLSVSPGETASISCRSSQSLLYSIGYNYLDWYLQKPGQSPQGLIYLGSKRASGVPDRFSGSGSGTDFTLRISRVEANDTGVYYCMQGLQSPLTFGQGTKLEIKR
notes: as for B1
B14: TB640_005 Fab-SASA VH-T28P (Fab, V domains shown)
VH: EVQLVESGGDLVKPGGSLRLSCVASGFPFRDYAMTWVRQAPGKGLQWVSLISGSGGKTYYADAVKGRFTISRDNAKNTLYLQMNSLRAEDTAVYYCAVDRLTKTIRPQYYGLWVWGQGTLVTVSS
VL: DIVMTQTPLSLSVSPGETASISCRSSQSLLYSIGYNYLDWYLQKPGQSPQGLIYLGSKRASGVPDRFSGSGSGTDFTLRISRVEANDTGVYYCMQGLQSPLTFGQGTKLEIKR
notes: as for B1
B15: TB640_005 Fab-SASA VH-L112M (Fab, V domains shown)
VH: EVQLVESGGDLVKPGGSLRLSCVASGFTFRDYAMTWVRQAPGKGLQWVSLISGSGGKTYYADAVKGRFTISRDNAKNTLYLQMNSLRAEDTAVYYCAVDRLTKTIRPQYYGMWVWGQGTLVTVSS
VL: DIVMTQTPLSLSVSPGETASISCRSSQSLLYSIGYNYLDWYLQKPGQSPQGLIYLGSKRASGVPDRFSGSGSGTDFTLRISRVEANDTGVYYCMQGLQSPLTFGQGTKLEIKR
notes: as for B1
B16: TB640_005 Fab-SASA VH-V114G (Fab, V domains shown)
VH: EVQLVESGGDLVKPGGSLRLSCVASGFTFRDYAMTWVRQAPGKGLQWVSLISGSGGKTYYADAVKGRFTISRDNAKNTLYLQMNSLRAEDTAVYYCAVDRLTKTIRPQYYGLWGWGQGTLVTVSS
VL: DIVMTQTPLSLSVSPGETASISCRSSQSLLYSIGYNYLDWYLQKPGQSPQGLIYLGSKRASGVPDRFSGSGSGTDFTLRISRVEANDTGVYYCMQGLQSPLTFGQGTKLEIKR
notes: as for B1
B17: TB640_005 Fab-SASA VH-L101K (Fab, V domains shown)
VH: EVQLVESGGDLVKPGGSLRLSCVASGFTFRDYAMTWVRQAPGKGLQWVSLISGSGGKTYYADAVKGRFTISRDNAKNTLYLQMNSLRAEDTAVYYCAVDRKTKTIRPQYYGLWVWGQGTLVTVSS
VL: DIVMTQTPLSLSVSPGETASISCRSSQSLLYSIGYNYLDWYLQKPGQSPQGLIYLGSKRASGVPDRFSGSGSGTDFTLRISRVEANDTGVYYCMQGLQSPLTFGQGTKLEIKR
notes: as for B1

Target: T1, Extracellular domain (ECD) of the …
Assay: SPR, Fab-SASA captured on BSA;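 note: biacore T200 SPR, Fab-SASA variants from E. coli conditioned medium captured on BSA-coated CM5 chip, canine IL-4RA injected 120 s then 420 s dissociation, 1:1 model fit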
B1 was tested, and the Kd was 18.6 nM, the “Ratio WT-kd/clone-kd” value was 0.99 and the koff was 0.000967 s⁻¹. The kon was 51900 M⁻¹ s⁻¹. For B2, the Kd was 11.3 nM, the “Ratio WT-kd/clone-kd” value was 1.22 and the koff was 0.00078 s⁻¹. The kon was 69200 M⁻¹ s⁻¹. With B3 the Kd was 15 nM, the “Ratio WT-kd/clone-kd” value was 0.49 and the koff was 0.00193 s⁻¹. The kon was 128000 M⁻¹ s⁻¹. For B4, the Kd was 5.97 nM, the “Ratio WT-kd/clone-kd” value was 1.33 and the koff was 0.000717 s⁻¹. The kon was 120000 M⁻¹ s⁻¹. With B5 the Kd was 5.41 nM, the “Ratio WT-kd/clone-kd” value was 0.98 and the koff was 0.000974 s⁻¹. The kon was 180000 M⁻¹ s⁻¹. In the case of B6, the Kd is reported as 1.83 nM, the “Ratio WT-kd/clone-kd” value is reported as 7.88 and the koff is reported as 0.000112 s⁻¹. For the same binder, the kon was 66200 M⁻¹ s⁻¹. For B7, the Kd was 5.47 nM, the “Ratio WT-kd/clone-kd” value was 1.62 and the koff was 0.000589 s⁻¹. The kon was 108000 M⁻¹ s⁻¹. For B8, the Kd was 7.13 nM, the “Ratio WT-kd/clone-kd” value was 1.5 and the koff was 0.000636 s⁻¹. The kon was 89200 M⁻¹ s⁻¹. In the case of B9, the Kd is reported as 7.73 nM, the “Ratio WT-kd/clone-kd” value is reported as 1.34 and the koff is reported as 0.000713 s⁻¹. The kon was 92300 M⁻¹ s⁻¹. For B10, the Kd was 7.16 nM, the “Ratio WT-kd/clone-kd” value was 1.41 and the koff was 0.000674 s⁻¹. The kon was 94100 M⁻¹ s⁻¹. With B11 the Kd was 9.6 nM, the “Ratio WT-kd/clone-kd” value was 0.62 and the koff was 0.00153 s⁻¹. The kon was 159000 M⁻¹ s⁻¹. With B12 the Kd was 8.5 nM, the “Ratio WT-kd/clone-kd” value was 0.79 and the koff was 0.0012 s⁻¹. For the same binder, the kon was 141000 M⁻¹ s⁻¹. With B13 the Kd was 6.65 nM, the “Ratio WT-kd/clone-kd” value was 0.71 and the koff was 0.00135 s⁻¹. For the same binder, the kon was 202000 M⁻¹ s⁻¹. For B14, the Kd was 8.95 nM, the “Ratio WT-kd/clone-kd” value was 1.21 and the koff was 0.000786 s⁻¹. The kon was 87800 M⁻¹ s⁻¹. For B15, the Kd was 13.7 nM, the “Ratio WT-kd/clone-kd” value was 1.97 and the koff was 0.000483 s⁻¹. For the same binder, the kon was 35300 M⁻¹ s⁻¹. In the case of B16, the Kd is reported as 3.5 nM, the “Ratio WT-kd/clone-kd” value is reported as 1.47 and the koff is reported as 0.000647 s⁻¹. It also gave a kon of 185000 M⁻¹ s⁻¹. B17 was tested, and the Kd was 7.1 nM, the “Ratio WT-kd/clone-kd” value was 1.53 and the koff was 0.000623 s⁻¹. The kon was 87800 M⁻¹ s⁻¹.
